Literature values, collected in paper PMC8895726.

Biological target: LAG-3:Fc (Mus musculus) (UniProt Q61790)
Assay: BLI

Chain of UniProt Q61790 (Q61790 24-442): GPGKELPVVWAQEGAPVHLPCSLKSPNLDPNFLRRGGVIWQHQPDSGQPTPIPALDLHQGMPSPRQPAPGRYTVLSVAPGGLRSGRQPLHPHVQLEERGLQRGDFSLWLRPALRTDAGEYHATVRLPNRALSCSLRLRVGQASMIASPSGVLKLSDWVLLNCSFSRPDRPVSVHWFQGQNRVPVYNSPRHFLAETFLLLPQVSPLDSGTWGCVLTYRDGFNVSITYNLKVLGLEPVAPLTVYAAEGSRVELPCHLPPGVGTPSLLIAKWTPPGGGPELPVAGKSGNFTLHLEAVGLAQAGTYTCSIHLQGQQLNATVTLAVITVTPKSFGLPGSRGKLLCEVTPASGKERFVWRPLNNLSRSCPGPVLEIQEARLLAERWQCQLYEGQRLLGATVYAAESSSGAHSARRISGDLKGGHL

For FGL1 (from UniProt Q71KU9), the Kd is given as 1.5 nM.
